We go through 1 molecule from patent US20210214414A1 (Pfizer, published 2021).

What is called Kd is a measure of binding affinity in units of concentration. By IC50 is commonly meant the point on the concentration scale where inhibition reaches its midpoint. A high value points to weaker potency.

For experiment [1], the target named is T1, Human SLIT2-N (human, UniProt O94813 31-1121, limits assumed).
T1 construct: domain: SLIT2-N (N terminal fragment); Soluble analyte in SPR, d2-labelled in HTRF, overexpressed on HEK293 cells in flow cytometry; also called human SLIT2-N (N terminal fragment)
T1 sequence (looked up): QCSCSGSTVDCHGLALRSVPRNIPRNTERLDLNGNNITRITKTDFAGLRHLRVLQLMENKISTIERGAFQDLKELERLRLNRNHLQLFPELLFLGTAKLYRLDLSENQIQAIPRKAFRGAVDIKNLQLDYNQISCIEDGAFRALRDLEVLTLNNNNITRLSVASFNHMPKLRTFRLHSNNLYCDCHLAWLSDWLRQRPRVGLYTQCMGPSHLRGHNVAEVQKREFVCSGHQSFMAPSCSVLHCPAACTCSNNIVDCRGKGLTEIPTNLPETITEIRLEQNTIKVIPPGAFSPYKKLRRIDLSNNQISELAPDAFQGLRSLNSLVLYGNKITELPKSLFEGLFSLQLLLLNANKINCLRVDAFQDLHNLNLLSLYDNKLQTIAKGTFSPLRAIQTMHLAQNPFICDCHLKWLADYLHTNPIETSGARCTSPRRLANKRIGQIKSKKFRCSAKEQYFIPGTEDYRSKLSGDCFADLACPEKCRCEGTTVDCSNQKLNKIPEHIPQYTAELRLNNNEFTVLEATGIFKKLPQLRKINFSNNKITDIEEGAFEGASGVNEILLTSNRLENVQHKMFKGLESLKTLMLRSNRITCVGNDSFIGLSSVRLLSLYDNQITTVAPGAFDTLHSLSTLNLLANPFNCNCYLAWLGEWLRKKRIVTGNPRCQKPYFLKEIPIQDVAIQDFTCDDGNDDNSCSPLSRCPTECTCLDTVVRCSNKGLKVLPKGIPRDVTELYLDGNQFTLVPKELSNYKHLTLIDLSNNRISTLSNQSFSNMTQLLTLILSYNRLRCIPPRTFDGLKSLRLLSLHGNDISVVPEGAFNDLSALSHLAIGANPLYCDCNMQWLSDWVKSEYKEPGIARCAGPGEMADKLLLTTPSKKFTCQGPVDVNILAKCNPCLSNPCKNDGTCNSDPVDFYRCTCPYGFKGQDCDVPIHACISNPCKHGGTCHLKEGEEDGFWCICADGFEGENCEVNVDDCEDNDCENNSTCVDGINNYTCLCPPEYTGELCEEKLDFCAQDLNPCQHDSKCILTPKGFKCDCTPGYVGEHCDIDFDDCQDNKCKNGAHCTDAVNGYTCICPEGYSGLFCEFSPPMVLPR
The experiment is described as follows: SPR, ROBO2-Fc 2.2 captured by anti-human Fc on a C1 chip, human SLIT2-N as analyte, 1:1 model. How it is done: HBS-EP was used as a diluent. […] An 8 point 2-fold dilution series was performed on the SLIT2 ligands, ranging from 2 nM to 15.6 pM using HBS-EPB as the diluent. […] Association of the indicated SLIT2 ligand was followed for 120 s and dissociation monitored for 180 s. The apparent binding affinity was determined using a simple 1:1 interaction model of the kinetic rate constants.
(Surface plasmon resonance follows binding to a sensor surface in real time, without labels.)

In experiment [2] the target is T2, Human SLIT3-N (human, UniProt O75094 34-1119, limits assumed).
T2 construct: domain: SLIT3-N; d2-labelled in the HTRF assay
T2 sequence (looked up): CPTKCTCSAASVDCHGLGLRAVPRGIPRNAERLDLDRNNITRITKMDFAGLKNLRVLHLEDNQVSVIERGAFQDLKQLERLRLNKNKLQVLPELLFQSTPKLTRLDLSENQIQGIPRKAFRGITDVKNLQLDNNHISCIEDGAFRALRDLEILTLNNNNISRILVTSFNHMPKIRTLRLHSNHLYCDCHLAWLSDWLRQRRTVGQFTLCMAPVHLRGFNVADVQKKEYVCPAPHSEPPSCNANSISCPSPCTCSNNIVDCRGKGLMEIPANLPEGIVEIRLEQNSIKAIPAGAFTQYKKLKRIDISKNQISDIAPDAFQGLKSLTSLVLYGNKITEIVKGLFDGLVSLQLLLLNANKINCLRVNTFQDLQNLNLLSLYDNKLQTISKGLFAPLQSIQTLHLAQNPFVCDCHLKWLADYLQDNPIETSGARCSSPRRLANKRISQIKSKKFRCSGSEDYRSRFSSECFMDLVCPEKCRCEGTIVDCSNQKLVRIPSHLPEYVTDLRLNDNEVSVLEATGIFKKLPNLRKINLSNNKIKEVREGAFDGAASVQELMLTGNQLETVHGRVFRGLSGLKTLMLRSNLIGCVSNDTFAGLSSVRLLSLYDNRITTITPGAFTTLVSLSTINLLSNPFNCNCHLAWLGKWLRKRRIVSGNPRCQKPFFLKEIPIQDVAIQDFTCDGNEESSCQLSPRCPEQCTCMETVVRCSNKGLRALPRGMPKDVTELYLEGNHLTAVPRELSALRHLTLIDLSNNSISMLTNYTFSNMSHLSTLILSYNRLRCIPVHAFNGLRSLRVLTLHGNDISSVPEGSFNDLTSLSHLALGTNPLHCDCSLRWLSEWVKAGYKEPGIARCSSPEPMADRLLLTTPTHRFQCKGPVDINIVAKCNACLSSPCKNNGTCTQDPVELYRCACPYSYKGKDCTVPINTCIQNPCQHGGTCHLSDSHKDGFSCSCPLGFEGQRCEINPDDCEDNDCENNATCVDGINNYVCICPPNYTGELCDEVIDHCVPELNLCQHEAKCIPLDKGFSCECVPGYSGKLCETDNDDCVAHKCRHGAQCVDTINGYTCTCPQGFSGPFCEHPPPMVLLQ
The experiment is described as follows: HTRF competition: d2-labelled human SLIT3-N binding to human ROBO2 on HEK293 cells; geometric mean, n=3. How it is done:
After incubation, fluorescence at 665 nm and 620 nm was measured on an Envision multilabel plate reader. The HTRF Ratio was calculated as follows: fluorescence at 665 nm/fluorescence at 620 nm×10,000. […] The IC₅₀ for each SLITx-N was determined using an 11-point, 4-fold dilution series with a top concentration of 4000 nM.

B1: ROBO2-Fc 2.2 (Fc fusion)
chain: SRLRQEDFPPRIVEHPSDVIVSKGEPTTLNCKAEGRPTPTIEWYKDGERVETDKDDPRSHRMLLPSGSLFFLRIVHGRRSKPDEGSYVCVARNYLGEAVSRNASLEVALLRDDFRQNPTDVVVAAGEPAILECQPPRGHPEPTIYWKKDKVRIDDKEERISIRGGKLMISNTRKSDAGMYTCVGTNMVGERDSDPAELTVFERGGSGGSEPKSSDKTHTCPPCPAPEAAGAPSVFLFPPKPKDTLMISRTPEVTCVVVDVSHEDPEVKFNWYVDGVEVHNAKTKPREEQYNSTYRVVSVLTVLHQDWLNGKEYKCKVSNKALPAPIEKTISKAKGQPREPQVYTLPPSREEMTKNQVSLTCLVKGFYPSDIAVEWESNGQPENNYKTTPPVLDSDGSFFLYSKLTVDKSRWQQGNVFSCSVMHEALHNHYTQKSLSLSPG
notes: Labelled with Alexa Fluor 647 in the flow cytometry assay; also called ROBO-Fc 2.2; ROBO2-Fc 2.2-AF647
Take B1: the affinity in experiment [1], expressed as Kd, was 0.279 nM. The IC50 in experiment [2] came out at 5.1 nM.
